Literature values as cited in publication PMC11190312.

Experiments:
[1] = biological target: nucleoprotein (SARS-CoV-1) (UniProt P59595); settings: cited from earlier work
[2] = biological target: nucleoprotein (SARS-CoV-2) (UniProt P0DTC9); settings: cited from earlier work

MASP-2 (from UniProt O00187)
Kd [1]: 0.268 µM | Kd [2]: 0.514 µM
